From ChEMBL document CHEMBL2074146, “Transport of the sulfated, amidated bile acid, sulfolithocholyltaurine, into rat hepatocytes is mediated by Oatp1 and Oatp2” (Hepatology, 2002) come the findings set out here.

Type in all cases: functional, cell-based
Data set [1] has as its target T1, Solute carrier organic anion transporter family member 1A4 (Rattus norvegicus, UniProt O35913).
T1 sequence (O35913 whole entry): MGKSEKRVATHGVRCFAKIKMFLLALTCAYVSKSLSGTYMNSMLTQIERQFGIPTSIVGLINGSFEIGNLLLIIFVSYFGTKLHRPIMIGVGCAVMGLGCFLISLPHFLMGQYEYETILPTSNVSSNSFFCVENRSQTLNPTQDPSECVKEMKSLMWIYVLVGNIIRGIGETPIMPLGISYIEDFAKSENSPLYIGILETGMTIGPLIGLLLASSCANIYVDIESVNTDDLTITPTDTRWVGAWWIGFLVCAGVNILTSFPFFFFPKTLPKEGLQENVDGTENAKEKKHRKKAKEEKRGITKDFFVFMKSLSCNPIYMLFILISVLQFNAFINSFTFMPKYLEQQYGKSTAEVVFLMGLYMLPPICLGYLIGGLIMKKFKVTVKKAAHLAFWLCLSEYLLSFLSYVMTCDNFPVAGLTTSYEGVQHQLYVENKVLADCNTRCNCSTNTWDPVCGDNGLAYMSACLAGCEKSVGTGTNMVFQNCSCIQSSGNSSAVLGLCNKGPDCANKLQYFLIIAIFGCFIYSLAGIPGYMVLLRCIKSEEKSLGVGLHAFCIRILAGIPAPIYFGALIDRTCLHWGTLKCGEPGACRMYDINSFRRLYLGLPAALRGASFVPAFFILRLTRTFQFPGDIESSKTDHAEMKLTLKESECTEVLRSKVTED
The data set can be described thus: (§1) TP_TRANSPORTER: uptake in Oatp2-expressing HeLa cells. Particulars: human.

Substrate in data set [2]: [H][C@]12CC[C@]3([H])[C@]([H])(CC[C@]4(C)C([C@H](C)CCC(=O)NCCS(=O)(=O)O)CC[C@@]34[H])[C@@]1(C)CC[C@@H](OS(=O)(=O)O)C2
The description is as §1.

Substrate in data set [3]: [H][C@]12CC[C@]3([H])[C@]([H])(CC[C@]4(C)C([C@H](C)CCC(=O)NCCS(=O)(=O)O)CC[C@@]34[H])[C@@]1(C)CC[C@@H](OS(=O)(=O)O)C2
As to the kind of experiment: TP_TRANSPORTER: uptake in Oatp1-expressing HeLa cells.

Take `C[C@]12CC[C@@H]3c4ccc(O)cc4CC[C@H]3[C@@H]1CC[C@@H]2O[C@@H]1O[C@H](C(=O)O)[C@@H](O)[C@H](O)[C@H]1O` [ESTRADIOL 17B GLUCURONIDE]: in data set [1], the Activity result was “substrate [+]”.

B1: Solute carrier organic anion transporter family member 1A4 (Rattus norvegicus) (protein)
chain: MGKSEKRVATHGVRCFAKIKMFLLALTCAYVSKSLSGTYMNSMLTQIERQFGIPTSIVGLINGSFEIGNLLLIIFVSYFGTKLHRPIMIGVGCAVMGLGCFLISLPHFLMGQYEYETILPTSNVSSNSFFCVENRSQTLNPTQDPSECVKEMKSLMWIYVLVGNIIRGIGETPIMPLGISYIEDFAKSENSPLYIGILETGMTIGPLIGLLLASSCANIYVDIESVNTDDLTITPTDTRWVGAWWIGFLVCAGVNILTSFPFFFFPKTLPKEGLQENVDGTENAKEKKHRKKAKEEKRGITKDFFVFMKSLSCNPIYMLFILISVLQFNAFINSFTFMPKYLEQQYGKSTAEVVFLMGLYMLPPICLGYLIGGLIMKKFKVTVKKAAHLAFWLCLSEYLLSFLSYVMTCDNFPVAGLTTSYEGVQHQLYVENKVLADCNTRCNCSTNTWDPVCGDNGLAYMSACLAGCEKSVGTGTNMVFQNCSCIQSSGNSSAVLGLCNKGPDCANKLQYFLIIAIFGCFIYSLAGIPGYMVLLRCIKSEEKSLGVGLHAFCIRILAGIPAPIYFGALIDRTCLHWGTLKCGEPGACRMYDINSFRRLYLGLPAALRGASFVPAFFILRLTRTFQFPGDIESSKTDHAEMKLTLKESECTEVLRSKVTED
B1: in data set [2], the Michaelis constant (Km) is 14.6 µM.

B2: Solute carrier organic anion transporter family member 1A1 (Rattus norvegicus) (protein)
chain: MEETEKKIATQEGRLFSKMKVFLLSLTCACLTKSLSGVYMNSMLTQIERQFDISTSVAGLINGSFEIGNLFFIVFVSYFGTKLHRPVVIGIGCVIMGLGCLLMSLPHFFMGRYEYETTISPTGNLSSNSFLCMENRTQTLKPTQDPAECVKEMKSLMWICVMVGNIIRGIGETPIVPLGISYIEDFAKSENSPLYIGILEMGKVAGPIFGLLLGSYCAQIYVDIGSVNTDDLTITPSDTRWVGAWWIGFLVCAGVNILTSIPFFFLPKALPKKGQQENVAVTKDGKVEKYGGQAREENLGITKDFLTFMKRLFCNPIYMLFILTSVLQVNGFINKFTFLPKYLEQQYGKSTAEAIFLIGVYSLPPICLGYLIGGFIMKKFKITVKKAAYLAFCLSVFEYLLFLCHFMLTCDNAAVAGLTTSYKGVQHQLHVESKVLADCNTRCSCSTNTWDPVCGDNGVAYMSACLAGCKKFVGTGTNMVFQDCSCIQSLGNSSAVLGLCKKGPECANRLQYFLILTIIISFIYSLTAIPGYMVFLRCVKSEEKSLGVGLHTFCIRVFAGIPAPVYFGALIDRTCLHWGTLKCGQRGACRMYDINSFRHIYLGLPIALRGSSYLPAFFILILMRKFQFPGDIDSSATDHTEMMLGEKESEHTDVHGSPQVENDGELKTKL
As to B2, in data set [3], the Km was 12.6 µM.
